Test results published in the DeepSol protein solubility set.

test: soluble on expression in E. coli; label from the status in PepcDB or PDB records

Row | Sequence | soluble on expression in E. coli
1 | MKVELVFIPSPGVGHIRATTALAKLLVASDNRLSVTLIVIPSRVSDDASSSVYTNSEDRLRYILLPARDQTTDLVSYIDSQKPQVRAVVSKVAGDVSTRSDSRLAGIVVDMFCTSMIDIADEFNLSAYIFYTSNASYLGLQFHVQSLYDEKELDVSEFKDTEMKFDVPTLTQPFPAKCLPSVMLNKKWFPYVLGRARSFRATKGILVNSVADMEPQALSFFSGGNGNTNIPPVYAVGPIMDLESSGDEEKRKEILHWLKEQPTKSVVFLCFGSMGGFSEEQAREIAVALERSGHRFLWSLRRASPVGNKSNPPPGEFTNLEEILPKGFLDRTVEIGKIISWAPQVDVLNSPAIGAFVTHCGWNSILESLWFGVPMAAWPIYAEQQFNAFHMVDELGLAAEVKKEYRRDFLVEEPEIVTADEIERGIKCAMEQDSKMRKRVMEMKDKLHVALVDGGSSNCALKKFVQDVVDNVP | soluble
2 | MSSSGVYTCNSCVLTFDSSDEQRAHMKSDWHRYNLKRRVAQLPPISFETFDSKVSAAAASTSKSAEKEKPVTKKELKRREKQALLEKKKKLLEIARANMLENMQKSQEGNTPDLSKLSLQENEENKEKEEPKKEEPEQLTEEEMAERVMQENVRNRVDIPLEQCLFCEHNKHFKDVEENLEHMFRTHGFYIPEQKYLVDKIGLVKYMSEKIGLGNICIVCNYQGRTLTAVRQHMLAKRHCKIPYESEDERLEISEFYDFTSSYANFNSNTTPDNEDDWEDVGSDEAGSDDEDLPQEYLYNDGIELHLPTGIKVGHRSLQRYYKQDLKPEVILTEGQGTLVAAETRSFLPAFDKKGVQTQQRVWQTERFDKKRLDKRSAKFVNNQPHYRDQLLQ | soluble
3 | SNAMHILVTGFAPFDNQNINPSWEAVTQLEDIIGTHTIDKLKLPTSFKKVDNIINKTLASNHYDVVLAIGQAGGRNAITPERVAINIDDARIPDNDDFQPIDQAIHLDGAPAYFSNLPVKAMTQSIINQGLPGALSNSAGTFVCNHTLYHLGYLQDKHYPHLRFGFIHVPYIPEQVIGKPDTPSMPLEKIVAGLTAAIEAISNDEDLHLALGTTE | soluble
4 | VRKCLSDTDCTNGEKCVQKNKICSTIVEIQRCEKEHFTIPCKSNNDCQVWAHEKICNKGCCWDLL | soluble
5 | MSDEIARLVADVFELAGLLRRSGEVVAAREGHTQARWQLLSVVSDRALTVPQAARRLGVTRQGVQRVANDLVVCGLAELRHNPDHRTSPLLVLTENGRRVLQAITERAIVVNNRLADAVDPAALQATRDSLRRMIVALKAERP | not soluble
6 | MKKITLLSGILFLIGYSDAEVFESQNVRVKRNDFTNNYGYGPFGIGPTNGGFDSYGFYRDKFYNSGLPPLYSFASYRNYYHEISFHKNKYGQPAPTDFETLQQERYGPYYDGVWGYADHSKNWFGKR | not soluble
7 | GPGSMHKDGPRLWDDTLVEAERIATDSKARYLQLPTPDREAEMQRTRSQFFLLLRERVRNTYLRRISKFNPGEPLTWKYISGRKKASLPSPTSMLLGDGQHTYKTARRAANALNRIFLPFHPSHKAVRFSKGINRQSASLNINASFLFGQQNNNESAATSTSGSSLPSSSESQDKNEAATTSGLVAHLHSPLDAPFNRTELLAALRNTPYGKAPGPDEVYSEALRHISSKGLRFLLRCINHSWTTGTIPVEWRRATIVPLLKPGKSPELLESYRPISLTSIVSKVAEKMVLKRLLWVWTPHPHQYAYRSMRTTTMQLAHLIHDVEHNRNHYFQVSLPKKSGIGNQLHYRPHRTLLVLVDFSKAFDSIDHRVLSRLLANIPGVNCRRWLRNFLCGRYAKTRVGHRHSDRRPMLRGVPQGSVL | not soluble
8 | MKLSPREADGYFARPDAGKTGILIHGADAMRIALKRQQIIAALLGPGGEEEMRLTRMPGAELRKDAAQLLDAVKAVGFFPGPRVVFVEDCPETSAPAVLTALEDWQPGDAQIVVTAGQLKPSSKIRKAFETHPNAYAAGIYDDPPSRAEIERMLSAAGIRDVPPEPMTVLSDLARDLGPGDFAQTMEKLALYKLGDTAPLVLEDIAACAPRSTEAALDDVLNVVAEGKEGEIGPLIRRLQAQGTTPVSLCIGATRHFRTLYTCASAPGGPSQGIGALRPPVFGPRRDRILNQAQRWGARRLEAALTVLTDTDLALRSAGQSAPQMALVERAMIRLAWLSRSRLEHHHHHH | not soluble
9 | MGRKWNNIKEKKASKDANTSRIYAKFGREIYVAAKQGEPDPESNQALKVVLERAKTYSVPKNIIERAIEKAKGGAEENYDELRYEGFGPNGSMIIVDALTNNVNRTAPEVRAAFGKNGGNMGVSGSVAYMFDATAVIVVEGKTADEALEILMEADVDVRDILEEDDSAKSCYAEPDQFHAVQEAFKNAGVEEFTVAELQMLAQSEVTLPDDAKEQFEKLIDALEDLEDVQQVYHNVDLGELEHHHHHH | soluble
10 | MSETAKRLLRRVEAIDAAAAENRARAEQYRQMTEKLAAVTGTATSPDGVVTVVAGPDGSVKEVTFSEQVRKADPAALSASVVHTIAQARVNATREQAEIMRRNLDDTHLLDQVLAEDARLFGDKQPEDPGPPPPAAVPTGGTPAGRPRTQPARQAYNDDDSFEDFQVLRRS | not soluble
11 | MAHHHHHHMLDFLDTINKYTLRSGSVTHIGGKISKKCAAQLVGSLVLQGRLNHYCAALAAQFMVSSEVLVVASRDAVQGISCEGCTLERQNLSSVPDTGEIFGVATTGNNVVVGYSAGVAMFSCKLELEKIYTLSEYTNSILGIAVTPDGSCLATGGANAIVTVWSRDMNPVHYLAGHTDWVRFVKFTIMDGRGLELFSTGDDGLVLHWDPLVGTLLSRIDFFHGQDIHAFEVSWRTGLIGIARDTPTICLYKPQISGIASNHAVGAVRLEQIGRIDDAHHSVLTALRFSNDSQWIVSAGEDETLSVSSVCQLKRVFVCETFIVRRHCMTFMNTFTSVCVLASPPESSAIIVVACATDGTVVQWVVNPETFKCTYTKKLQLL | not soluble
12 | SAFVAALSAAGLPTDAFVFEGFLPTRGKRRLEKLANLKGEQRVVIFYEAPGRLQAALADMREVLGDRHVVVARELTKIHEEFVRGRVSFVAEHFAAVDVKGEVVILVAPAPAP | soluble
13 | MAGDPNSMKFMSGKFCVLCGKQNVDLIDSLCVDCYVKSKKLIETPKRVTGKYCKICGAQWIRGKWIRTSATSLASVVEDIIARELGSKMRIDKNVDEFAFDIKSIWKDPSGNSFATIEFRGKVRGKSFSQEAVISLEMERELCDSCFRKKTRYYEAIVQLRSKGKIGVDDKKRAFFESFFSTSIVDNISDVIEGREGVDYYFMSKSVARKLVSMISSIVDVEVNESYQNEKMKNGKREAKLVISLRILEHHHHHH | not soluble
14 | MEENLERTESLAREADDCHPIFRIAPSTVEFNKLRKRLLRHIRQAFDDFSMLSSGKKWLVALSGGKDSYGLLALLLDLKWRGLLPVEILACNLDQGQPGFPKHILPDFLNSYQIPHRIEYQDTYSIVTDKLVHTQTYCSLCSRLRRGNLYRIAREEGCSALVLGHHRDDVLETFFMNLFHGGRLAAMPGKLINDEGDLFVLRPLVYAAEEDMEKFSQAMQFPIIPCNLCGSQDGLQRNAMKEMLKDIERKMPGRKDTMIRALTNVRPSHLLDKKFFDFKNLF | not soluble
15 | MSLKDGKLGLPIPEAVKIIPELNNYVINGKLDFSNRQARILYNKAIAKALFGLDIEYHPKGLVTTPISRYIFLKTFLRGGEVALEIGTGHTAMMALMAEKFFNCKVTATEVDEEFFEYARRNIERNNSNVRLVKSNGGIIKGVVEGTFDVIFSAPPYYDKPLGRVLTEREAIGGGKYGEEFSVKLLEEAFDHLNPGGKVALYLPDKEKLLNVIKERGIKLGYSVKDIKFKVGTRWRHSLIFFKGISEGHHHHHH | soluble
16 | SLSRRKPNPVIVADIRQAEGALAEIATIDRKVGEIEAQMNEAIDAAKARASQKSAPLLARRKELEDGVATFATLNKTEMFKDRKSLDLGFGTIGFRLSTQIVQMSKITKDMTLERLRQFGISEGIRIKEDVNKEAMQGWPDERLEMVGLKRRTTDAFYIEINREEVADTAA | soluble
17 | YGAWAAQELQAKLAEIGAPIQGNREELVERLQSYTRQTGIVLNRP | soluble
